# Results taken from the RNAGym collection of RNA variant scans (doi:10.7554/elife.80360).
# B1: HDV Ribozyme (parent)
# chain: GGCCGGCAUGGUCCCAGCCUCCUCGCUGGCGCCGGCUGGGCAACAUUCCGAGGGGACCGUCCCCUCGGUAAUGGCGAAUGGGACCCA
# Variants of: B1
# Experiment: self-cleavage, relative activity (ratio to wild type); higher = more cleavage; co-transcriptional
row,Variant,self-cleavage
1,C7G C48A,0.262
2,C7A A78G,0.0875
3,C7A A78C,0.0554
4,G6U G67U,0.62
5,G6U G67A,0.517
6,C7A U20C,0
7,C7A U20G,0.312
8,C7A G67U,0.378
9,C7A A87C,0.514
10,C7G A16G,0.0978
11,C7G A16C,0.151
12,C7G A16U,0.0692
13,C7A C19U,0.0906
14,C7A U79C,0.128
15,C7A U27G,0.447
16,C7A U27A,0.609
17,C7G C32G,0.115
18,C7G C32U,0.104
19,C7A G80C,0.192
20,C7A G29U,0.0875
21,C7A G29C,0.0707
22,C7G U46A,0
23,C7U A8C,0.917
24,G6U U12A,0

row,Variant,self-cleavage
1,G6U U12G,0
2,G6U U12C,0.0573
3,C7A C48A,0.604
4,C7G G53C,0
5,C7G G76U,0.237
6,C7G G76A,0.172
7,C7A U37G,0.246
8,C7A G53C,0.38
9,C7A C30G,0.0791
10,C7A C30A,0.0282
11,C7A C30U,0.0396
12,G6U G54U,0.643
13,G6U G54C,0.383
14,C7A A71G,0.584
15,C7A A71C,0.298
16,C7A A71U,0.462
17,C7A G50A,0.527
18,C7A C22G,0.0791
19,G6U G28U,0.104
20,G6U G10A,0.185
21,C7U A16U,0.643
22,C7U A16G,0.72
23,C7G C30G,0.119
24,C7G C30U,0.138

row,Variant,self-cleavage
1,C7G G31U,0.745
2,C7G G10A,0.128
3,C7G A83G,0.17
4,C7G A83C,0.175
5,C7A U23C,0.935
6,C7A U23A,0.739
7,C7A C86A,0.804
8,C7A C86G,0.571
9,C7A C86U,0.831
10,G6U G11U,0.0361
11,G6U G11C,0
12,C7A A45U,0.332
13,C7G G35U,0.0811
14,C7G C26A,0.138
15,C7G C26G,0.369
16,C7G C75A,0
17,C7G C75U,0
18,C7A A70C,0.346
19,C7A A70G,0.426
20,C7A A70U,0.356
21,C7A C63A,0.489
22,C7A C63G,0.35
23,C7G A42C,0.208
24,C7A C66G,0.243

row,Variant,self-cleavage
1,G6U U47C,0.467
2,G6U U47A,0.482
3,G6U G25A,0.169
4,C7G C63G,0.201
5,C7G C63A,0.172
6,C7G G52A,0.151
7,C7A U69C,0.617
8,C7A C24A,0.125
9,C7A C24U,0.306
10,G6U G53U,0.643
11,C7G G67A,0.128
12,C7G G67U,0.302
13,C7A C49A,0.538
14,C7G U65A,0
15,C7A C13A,0.185
16,C7A G31A,0.87
17,C7A G31U,1.07
18,C7A G31C,1.03
19,C7G G34A,0.115
20,C7G G34U,0.0504
21,C7A C36U,0.203
22,C7A C36A,0.0923
23,G6U U65G,0.453
24,C7A G76C,0.988

row,Variant,self-cleavage
1,G6U G38A,0.0396
2,G6U G38U,0.0308
3,C7A G28U,0.0361
4,C7G C85U,0.32
5,C7G C85G,0.237
6,C7G C15U,0.0978
7,C7G C15G,0
8,C7G C15A,0
9,C7A C61U,0.441
10,G6U C63G,0.268
11,C7G A56G,0.208
12,C7G A56C,0.391
13,C7U A51G,0.965
14,C7A G82U,0.256
15,C7A G82C,0.0811
16,C7A G82A,0.0875
17,C7G C58G,0.293
18,C7G C58A,0.506
19,C7A A51C,0.609
20,C7A A51G,0.635
21,C7A A16C,0.277
22,C7A A16G,0.249
23,C7A A16U,0.499
24,C7G U20C,0

row,Variant,self-cleavage
1,C7G U20G,0.145
2,G6U G80A,0.104
3,C7G A77C,0.0692
4,C7A C14U,0.447
5,C7A C14G,0
6,G6U G81A,0.0997
7,G6U G81U,0.154
8,G6U G81C,0.196
9,G6U G39U,0.106
10,G6U G39C,0.151
11,C7G G50U,0.237
12,C7G G50A,0.612
13,C7G C19U,0
14,C7A C58U,0.731
15,C7A C58G,0.705
16,G6U C61A,0.717
17,C7A C57A,0.597
18,C7A C57U,0.702
19,C7G C84U,0
20,C7G C84G,0.0665
21,G6U U46A,0.0755
22,G6U U46G,0.123
23,G6U U46C,0.133
24,C7A C21G,0

row,Variant,self-cleavage
1,C7A C21A,0.0791
2,C7A C21U,0
3,C7G G54U,0.219
4,C7G G54A,0.302
5,C7G G54C,0.415
6,C7A U9C,0.604
7,C7G C66A,0.161
8,C7A G81A,0.0302
9,C7U A71G,0.931
10,C7U A71C,0.322
11,C7U A71U,0.677
12,C7A G74C,0.131
13,C7A G73A,0.106
14,G6U G74C,0.0449
15,C7A G40C,0.102
16,C7G G28U,0.0875
17,C7G G28C,0
18,C7G G28A,0.0536
19,C7G U47G,0
20,C7U,0.86
21,C7G,0.315
22,C7A,0.644
23,C7G G74U,0.0361
24,C7A G25A,0.175

row,Variant,self-cleavage
1,C7A G25U,0.102
2,C7G C24G,0.123
3,C7G C24A,0.208
4,C7G C64G,0.111
5,C7G C64A,0.0831
6,C7G C64U,0.396
7,C7G G39U,0
8,C7A G10A,0.0831
9,C7A U60C,0.712
10,C7A U60G,0.356
11,C7A U60A,0.665
12,C7G C41G,0.128
13,C7G C41U,0.0615
14,C7G C41A,0
15,C7A A83C,0.0923
16,C7G A78U,0.0791
17,C7G A78C,0.175
18,C7G A78G,0.0831
19,C7G G17U,0
20,C7G G17A,0
21,C7G G25U,0.0831
22,C7G C22A,0
23,G6U C86G,0.467
24,G6U C86U,0.633

row,Variant,self-cleavage
1,C7A C84A,0.519
2,C7G G59A,0.332
3,C7G G59C,0.404
4,C7A A56G,0.399
5,C7A A56C,0.831
6,C7G C21A,0
7,C7G C21G,0
8,C7A U46C,0.453
9,G6U U79A,0.246
10,G6U U79C,0.123
11,C7A U65C,0.522
12,C7G A70U,0.475
13,C7G G82A,0.113
14,C7G A43G,0
15,C7G A43C,0.111
16,G6U G76A,0.708
17,G6U G76U,0.731
18,C7G G29U,0
19,C7G G29A,0
20,G6U G59C,0.475
21,G6U G59A,0.544
22,G6U G59U,0.69
23,C7G G73C,0
24,C7A U47G,0.317

row,Variant,self-cleavage
1,C7A U47C,0.277
2,C7A G35A,0.0841
3,C7A G35U,0.0906
4,G6U C64U,0.723
5,G6U C64A,0.415
6,C7A G52C,0.482
7,G6U U23C,0.312
8,G6U U23A,0.466
9,C7G C18A,0.0639
10,C7G C18G,0
11,C7G U37A,0.147
12,C7U A70U,0.748
13,C7A G54A,0.504
14,C7A G54U,0.609
15,G6U G73A,0.113
16,G6U U69G,0.375
17,G6U U69C,0.655
18,G6U U69A,0.415
19,C7G A87G,0.381
20,C7G A87C,0.211
21,C7U A45U,0.415
22,C7U A45C,0.119
23,C7G G68C,0.0504
24,C7G G68U,0.285

row,Variant,self-cleavage
1,C7G C86G,0.378
2,C7A G39C,0
3,C7A C75G,0.225
4,C7A C75U,0.131
5,C7A C75A,0.0923
6,C7A A43G,0
7,C7G A51U,0.107
8,C7G A51C,0.437
9,C7G G11U,0.104
10,C7A G17U,0.162
11,C7A G17A,0.0475
12,C7A G17C,0
13,G6U U27A,0.453
14,C7G C61U,0.237
15,C7A U72G,0
16,C7A U72A,0.308
17,C7A U72C,0.196
18,C7G U60G,0.256
19,C7G U60C,0.383
20,C7G G55U,0.17
21,C7G G55C,0.214
22,G6U C62U,1
23,C7U A43G,0.19
24,C7U A43C,0.26

row,Variant,self-cleavage
1,C7U A43U,0.475
2,C7G U12C,0.111
3,G6U C75A,0.0875
4,C7G G80C,0
5,C7G G80U,0.0462
6,C7A U12C,0.172
7,C7A U12A,0.0978
8,C7G C62U,0.302
9,G6U C84G,0.0923
10,C7A C41G,0
11,C7A C41A,0.342
12,C7A C85U,0.807
13,C7A C85A,0.453
14,C7G C49U,0.237
15,C7G C49A,0.145
16,C7G C49G,0.123
17,C7G C14A,0.0923
18,C7G C14U,0.196
19,G6U G68A,0.483
20,C7A G68C,0.341
21,C7A A8G,0.831
22,C7A A8U,0.609
23,C7A A8C,0.65
24,C7G C57U,0.383

row,Variant,self-cleavage
1,C7G C57G,0.208
2,G6U G55A,0.59
3,G6U G55C,0.495
4,G6U G55U,0.942
5,C7A G34C,0
6,C7A G34U,0
7,C7A G34A,0.175
8,G6U G50C,0.776
9,C7A C44A,0.0978
10,C7G U79C,0.0489
11,C7G U79G,0.104
12,C7G C33G,0.237
13,G6U G35U,0.143
14,G6U G35A,0.208
15,C7G G38C,0.0594
16,C7A C18G,0
17,G6U C85G,0.297
18,C7G U72G,0
19,C7G U72A,0.0755
20,C7A C15A,0.0415
21,C7G U9A,0.237
22,C7G U9G,0.831
23,C7A C62G,0.0665
24,C7A C62A,0.618

row,Variant,self-cleavage
1,C7A G38U,0.0346
2,C7A G38A,0.0639
3,G6U U9C,0.465
4,G6U U9A,0.623
5,C7A G55U,0.4
6,C7A G55C,0.778
7,C7G C44G,0.0755
8,C7G A71U,0.0639
9,C7G A45C,0
10,G6U U60G,0.346
11,G6U U60A,0.571
12,C7A A42G,0.0831
13,C7A A42U,0.108
14,G6U G34A,0.208
15,G6U G34U,0.0755
16,C7G G81A,0.0594
17,C7G G81C,0
18,G6U G82C,0.17
19,G6U G40U,0.633
20,G6U U37A,0.0437
21,C7G U23G,0.217
22,C7G U23A,0.227
